# Measured values reported in paper PMC7116888 (Nature, 2020).
# T1: Ste4-Ste18 dimer (βγ dimer) (Saccharomyces cerevisiae, UniProt P18851 1-423; P18852 1-110, C106S | C107S)
# T1 sequence (looked up) 1: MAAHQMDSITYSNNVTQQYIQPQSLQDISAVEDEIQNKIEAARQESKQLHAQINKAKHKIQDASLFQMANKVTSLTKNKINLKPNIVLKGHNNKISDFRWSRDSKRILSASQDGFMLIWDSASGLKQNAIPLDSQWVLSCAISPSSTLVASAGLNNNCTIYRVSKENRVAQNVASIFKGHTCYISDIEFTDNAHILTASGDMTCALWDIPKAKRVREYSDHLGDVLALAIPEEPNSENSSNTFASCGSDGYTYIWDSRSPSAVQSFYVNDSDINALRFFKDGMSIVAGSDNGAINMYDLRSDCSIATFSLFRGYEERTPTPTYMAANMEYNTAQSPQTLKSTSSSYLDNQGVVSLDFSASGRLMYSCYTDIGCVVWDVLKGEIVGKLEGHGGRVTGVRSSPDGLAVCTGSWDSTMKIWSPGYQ
# T1 sequence (looked up) 2: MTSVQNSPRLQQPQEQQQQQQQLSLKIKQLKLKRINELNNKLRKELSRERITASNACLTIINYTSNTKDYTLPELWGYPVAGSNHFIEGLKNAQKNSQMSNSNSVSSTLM
# Legend:
# [1] = target: T1, Ste4-Ste18 dimer (βγ dimer); test: SEC
# [2] = target: T2, α-factor-bound Ste2 (Ste2 dimer purified with α-factor) (Saccharomyces cerevisiae, UniProt D6VTK4 1-431, N-acetylglucosamine modelled at Asn25); test: SEC-MALS
# [3] = target: the molecule itself; test: cryo-EM structure
# [4] = target: T2, α-factor-bound Ste2 (Ste2 dimer …); test: cryo-EM structure
binder,measurement,setting,value
"wild type Gpa1 (S. cerevisiae G protein α-subunit) (natural protein, Saccharomyces cerevisiae, UniProt P08539 1-472, looked up) MGCTVSTQTIGDESDPFLQNKRANDVIEQSLQLEKQRDKNEIKLLLLGAGESGKSTVLKQLKLLHQGGFSHQERLQYAQVIWADAIQSMKILIIQARKLGIQLDCDDPINNKDLFACKRILLKAKALDYINASVAGGSDFLNDYVLKYSERYETRRRVQSTGRAKAAFDEDGNISNVKSDTDRDAETVTQNEDADRNNSSRINLQDICKDLNQEGDDQMFVRKTSREIQGQNRRNLIHEDIAKAIKQLWNNDKGIKQCFARSNEFQLEGSAAYYFDNIEKFASPNYVCTDEDILKGRIKTTGITETEFNIGSSKFKVLDAGGQRSERKKWIHCFEGITAVLFVLAMSEYDQMLFEDERVNRMHESIMLFDTLLNSKWFKDTPFILFLNKIDLFEEKVKSMPIRKYFPDYQGRVGDAEAGLKYFEKIFLSLNKTNKPIYVKRTCATDTQTMKFVLSAVTDLIIQQNLKKIGII",binding result,[1],binds
"wild type Gpa1 heterotrimer (Gpa1-Ste4-Ste18) (complex, Saccharomyces cerevisiae) chain 1: MGCTVSTQTIGDESDPFLQNKRANDVIEQSLQLEKQRDKNEIKLLLLGAGESGKSTVLKQLKLLHQGGFSHQERLQYAQVIWADAIQSMKILIIQARKLGIQLDCDDPINNKDLFACKRILLKAKALDYINASVAGGSDFLNDYVLKYSERYETRRRVQSTGRAKAAFDEDGNISNVKSDTDRDAETVTQNEDADRNNSSRINLQDICKDLNQEGDDQMFVRKTSREIQGQNRRNLIHEDIAKAIKQLWNNDKGIKQCFARSNEFQLEGSAAYYFDNIEKFASPNYVCTDEDILKGRIKTTGITETEFNIGSSKFKVLDAGGQRSERKKWIHCFEGITAVLFVLAMSEYDQMLFEDERVNRMHESIMLFDTLLNSKWFKDTPFILFLNKIDLFEEKVKSMPIRKYFPDYQGRVGDAEAGLKYFEKIFLSLNKTNKPIYVKRTCATDTQTMKFVLSAVTDLIIQQNLKKIGII chain 2: MAAHQMDSITYSNNVTQQYIQPQSLQDISAVEDEIQNKIEAARQESKQLHAQINKAKHKIQDASLFQMANKVTSLTKNKINLKPNIVLKGHNNKISDFRWSRDSKRILSASQDGFMLIWDSASGLKQNAIPLDSQWVLSCAISPSSTLVASAGLNNNCTIYRVSKENRVAQNVASIFKGHTCYISDIEFTDNAHILTASGDMTCALWDIPKAKRVREYSDHLGDVLALAIPEEPNSENSSNTFASCGSDGYTYIWDSRSPSAVQSFYVNDSDINALRFFKDGMSIVAGSDNGAINMYDLRSDCSIATFSLFRGYEERTPTPTYMAANMEYNTAQSPQTLKSTSSSYLDNQGVVSLDFSASGRLMYSCYTDIGCVVWDVLKGEIVGKLEGHGGRVTGVRSSPDGLAVCTGSWDSTMKIWSPGYQ chain 3: MTSVQNSPRLQQPQEQQQQQQQLSLKIKQLKLKRINELNNKLRKELSRERITASNACLTIINYTSNTKDYTLPELWGYPVAGSNHFIEGLKNAQKNSQMSNSNSVSSTLM",stoichiometry N,[2],2 G proteins per Ste2 dimer
"Ste2 (wild-type Saccharomyces cerevisiae pheromone receptor, residues 1-431), purified (receptor, UniProt D6VTK4 1-431, looked up, N-acetylglucosamine modelled at Asn25) MSDAAPSLSNLFYDPTYNPGQSTINYTSIYGNGSTITFDELQGLVNSTVTQAIMFGVRCGAAALTLIVMWMTSRSRKTPIFIINQVSLFLIILHSALYFKYLLSNYSSVTYALTGFPQFISRGDVHVYGATNIIQVLLVASIETSLVFQIKVIFTGDNFKRIGLMLTSISFTLGIATVTMYFVSAVKGMIVTYNDVSATQDKYFNASTILLASSINFMSFVLVVKLILAIRSRRFLGLKQFDSFHILLIMSCQSLLVPSIIFILAYSLKPNQGTDVLTTVATLLAVLSLPLSSMWATAANNASKTNTITSDFTTSTDRFYPGTLSSFQTDSINNDAKSSLRSRLYDLYPRRKETTSDKHSERTFVSETADDIEKNQFYQLPTPTSSKNTRIGPFADASYKEGEVEPVDMYTPDTAADEEARKFWTEDNNNL",stoichiometry N,[3],2
"mini-Gpa1 heterotrimer (mini-Gpa1-Ste4-Ste18) (complex, Saccharomyces cerevisiae) chain 1: TVSTQTIGDESDPFLQNKRANDVIEQSLQLEKQRDKNEIKLLLLGADNSGKSTVLKQLKLLHGGSGGSGGTTGITETEFNIGSSKFKVLDAGGQRSERKKWIHCFEGITAVLFVLDMSDYNRMHESIMLFDTLLNSKWFKDTPFILFLNKIDLFEEKVKSMPIRKYFPDYQGRVGDAEAGLKYFEKIFLSLNKTNKPIYVKRTCATDTQTAKFILSAVTDLIIQQNLKKIGII chain 2: MAAHQMDSITYSNNVTQQYIQPQSLQDISAVEDEIQNKIEAARQESKQLHAQINKAKHKIQDASLFQMANKVTSLTKNKINLKPNIVLKGHNNKISDFRWSRDSKRILSASQDGFMLIWDSASGLKQNAIPLDSQWVLSCAISPSSTLVASAGLNNNCTIYRVSKENRVAQNVASIFKGHTCYISDIEFTDNAHILTASGDMTCALWDIPKAKRVREYSDHLGDVLALAIPEEPNSENSSNTFASCGSDGYTYIWDSRSPSAVQSFYVNDSDINALRFFKDGMSIVAGSDNGAINMYDLRSDCSIATFSLFRGYEERTPTPTYMAANMEYNTAQSPQTLKSTSSSYLDNQGVVSLDFSASGRLMYSCYTDIGCVVWDVLKGEIVGKLEGHGGRVTGVRSSPDGLAVCTGSWDSTMKIWSPGYQ chain 3: MTSVQNSPRLQQPQEQQQQQQQLSLKIKQLKLKRINELNNKLRKELSRERITASNACLTIINYTSNTKDYTLPELWGYPVAGSNHFIEGLKNAQKNSQMSNSNSVSSTLM",stoichiometry N,[4],2 G protein heterotrimers per Ste2 homodimer
